This note sets out measurements from patent US9885050B2, “Molecular affinity clamp technology and uses thereof” (The University of Chicago, priority 2007, dated 2018).

The subject of assay [1] is Ala-substituted ARVCF peptide (positions −7 to −4). The experiment in a line: Alanine-scanning of the ARVCF peptide by SPR. The class given is binding. To be noted: positions −7 to −4. The protocol:
To complement the library sorting experiments described above, Ala-scanning experiments of the ARVCF peptide were performed. When the goal is to define differences in the ability of ePDZ-a and ePDZ-b1 to recognize the differences between the ARVCF and δ-catenin peptides, only those positions that differ between the two peptides are analyzed.
Consistent with the peptide library sorting results, the ePDZ-b family was sensitive to Ala substitution mutations at all positions between −4 and −7. […] The results are shown in terms of changes in free energy change (ΔG=−RT ln(Kd^mutant/Kd^wild type)). […] The tested positions are −7 to −4 in the ARVCF peptide (PQPVDSWV-COOH; mutated positions are underlined). For each mutant, binding affinity was determined using surface plasmon resonance as described previously for the wild-type ARVCF peptide (69).

Assay [2] has as its target T1, δ-catenin peptide (PASPDSWV-COOH) (Homo sapiens, UniProt Q9UQB3).
T1 construct: yeast SUMO (N); made in house
Description: Surface plasmon resonance (SPR, BIAcore) analysis of motif binding, δ-catenin peptide. To be noted: for Kd: SPR. An excerpt: (§1) Using semi-automated methods, the phage display library was sorted using an eight-residue motif (SEQ ID NO: 148) corresponding to the ARVCF C-terminus. […] The maximal motif/affinity concentrations are indicated. In B, C and F, the on and off rates are also shown on the left and right sides, respectively. […] After four rounds of sorting, two clones with high affinity were identified to the ARVCF peptide motif. ePDZ-a (SEQ ID NO: 149) and ePDZ-b (SEQ ID NO: 150) are thus (referred to as “enhanced PDZ-a” and “enhanced PDZ-b” or simply “ePDZ-a” and “ePDZ-b” respectively) potential affinity clamp candidates.
The binding specificity of the ePDZ clones was investigated. In addition to the ARVCF motif, wild-type erbin PDZ also binds to the C-terminus of δ-catenin with a low μM Kd. The two sequences differ only at positions outside the core recognition motif, DSWV (SEQ ID NO: 69) —COOH (Table 2). The affinity enhancement of ePDZ-a was similar for both targets. Remarkably, the ePDZ-b clone had very weak binding to δ-catenin, similar to the wild-type PDZ domain, showing that ePDZ-b discriminates between the two targets by ˜200 fold. Equally importantly, ePDZ-b discriminates amino acids outside the DSWV-COOH motif shared by the two peptides (Table 2), and thus, it expanded the size of the target motif. The improved specificity is consistent with the molecular affinity clamp design where the enhancer domain binds to the motif surface presented on the PDZ domain and thus can “read” the motif sequence (FIG. C2).
A general note: SPR reads the build-up and loss of mass on a sensor chip optically.

For assay [3], the target named is T2, ARVCF peptide (PQPVDSWV-COOH) (Homo sapiens, UniProt O00192).
T2 construct: made in house; host or cells: E. coli
Description: Surface plasmon resonance (SPR, BIAcore) analysis of motif binding, ARVCF peptide.
From the text: as §1
These two clones were characterized as soluble proteins.
One method to improve affinity of the affinity clamp is to improve the interaction interface of the enhancer domain (e.g. the FN3 domain). […] The two second-generation variants, ePDZ-b1 (SEQ ID NO: 151) and ePDZ-b2 (SEQ ID NO: 143), were prepared as protein samples and their binding properties were analyzed using SPR. […] The affinity enhancement primarily originated from reduced dissociation rates.
A disulfide-constrained peptide was used as an enhancer domain. A peptide-PDZ affinity clamp was designed in which the diversified peptide segment was N-terminal connected to the circularly permutated PDZ domain (cpPDZ) described above. (See, FIG. F1 showing an affinity clamp constructed with Cys-constrained peptide as an enhancer domain in which (A) is a schematic drawing of the affinity clamp. Note that the peptide is attached to the N-terminus of the interaction domain. (B, C) are saturation curves of the parent PDZ (B) and peptide-PDZ Affinity Clamp (C) determined using surface plasmon resonance (SPR). SPR experiments were performed in the equilibrium mode, and the SPR response is plotted as a function of the concentration of the target peptide. The target peptide fused to the yeast SUMO protein was used in these measurements. The curves show the best fit of the 1:1 binding model to the data. The Kd values are also shown.)

Assay [4] concerns SUMO-ARVCF fusion protein. The experiment in a line: Western blotting of SUMO-ARVCF fusion protein in E. coli lysate. The assay is classed as binding. To be noted: E. coli lysate containing 5 nanograms SUMO-ARVCF. The text has this:
The PDZ-FN3 affinity clamps functioned well in Western blotting and in immunoprecipitation (pull down) assays. […] Lane 6 is a negative control for the secondary, anti-FLAG antibody. In FIG. C6B, pull-down (immunoprecipitation), biotinylated ePDZ's and streptavidin (SA)-magnetic beads were used. The input (I), unbound (U), wash (W) and bound (B) fractions were separated with SDS-PAGE and detected with CBB. Note that this is not Western blotting, which would have given higher sensitivity and specificity. […] Note that most of nonspecific binding is due to the SA-magnetic beads (lane 13). […] It is noted that the relatively low recovery of the target in the pull-down assays may be due to the fact that the off-rate was optimized for these clamps (FIG. C3).

The next assay concerns the target T3, ARVCF peptide (Homo sapiens, UniProt O00192).
T3 construct: made in house; host or cells: E. coli
Description: IC50 for the ARVCF peptide (Table 4). The class given is binding.

Where two headings read alike, the source gives them in different places.

B1: ePDZ-a: affinity clamp: circularly permutated erbin PDZ fused to engineered FN3, SEQ ID NO: 149, selected for ARVCF peptide (protein)
chain: MKHHHHHHHHHHSSDYKDDDDKGENLYFQGSPELGFSISGGVGGRGNPFRPDDDGIFVTRVQPEGPASKLLQPGDKIIQANGYSFINIEHGQAVSLLKTFQNTVELIIVREVGNGAKQEIRVRVEKDGGSGGVSSVPTNLEVVAATPTSLLISWDASYYGVSYYRITYGETGGNSPVQEFTVPYSSSTATISGLKPGVDYTITVYAYSDYYGSHHYSPISINYRT
On to B1, for which the “sensitivity to Ala substitutions of the ARVCF peptide” value in assay [1] is on record as “much less sensitive to the Ala substitutions”. Further, the Kd came to 430 nM in assay [2] (Table 2, read-out: Kd, δ-catenin PASPDSWV); 429 nM in assay [2] (Table 4, read-out: Kd [nM] δ-catenin); 56 nM in assay [3] (Table 2, SPR, read-out: Kd, ARVCF PQPVDSWV); 56 ± 6 nM in assay [3] (Table 4, SPR, read-out: Kd [nM] ARVCF). The “Specificity Index” value in assay [2] (ratio of Kd for δ-catenin to Kd for ARVCF) is 8. In addition, the koff in assay [3] (for the ARVCF peptide, SPR) is recorded as 1.5 × 10^−2 S^−1. For the same molecule, the kon in assay [3] (for the ARVCF peptide, SPR) is 2.9 × 10^5 M^−1S^−1. In assay [3] (ratio of Kd of parent protein (cpPDZFN) for ARVCF to that of the affinity clamp), the “Affinity Enhancement” value is reported as 520. Besides, the “detection of target in Western blotting” value in assay [4] is “detected the target”. In addition, the midpoint of inhibition with ARVCF peptide, the IC50, lay at 40 nM.

A word on the Kd: it is the free concentration of one partner at which half of the binding sites on the other are occupied at equilibrium, for simple one-to-one binding. By IC50 is commonly meant the concentration at which inhibition is half-maximal.
